Test [1] deals with T1, human PD-1-His (human, UniProt Q15116 25-167, limits assumed).
T1 construct: Antigen of the Octet assays; not shown: His tag
The test is described as follows: Octet (BLI), AHC biosensors capture the bivalent mAb, dipped into multiple concentrations of PD-1; KDapp per legend. For orientation: BLI is a label-free optical method that tracks binding on a fibre tip over time.

The target of test [2] is T1, human PD-1-His. Kind of test: Octet (BLI), AHC capture of the bivalent mAb, PD-1 in solution.
The target of test [3] is T1, human PD-1-His. Kind of test: Octet.

T1 sequence (Q15116 25-167 limits assumed): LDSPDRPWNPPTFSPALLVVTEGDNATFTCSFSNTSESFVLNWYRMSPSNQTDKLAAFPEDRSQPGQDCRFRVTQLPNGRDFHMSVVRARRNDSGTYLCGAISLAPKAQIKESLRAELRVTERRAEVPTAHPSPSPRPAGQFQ

B1: H1.193_L1.1 (XENP32809) (antibody, human IgG1, kappa, V domains shown)
VH: EVQLVESGGGLVQPGGSLRLSCAASGFTFSSFGMHWVRQAPGKGLEWVSYISSGSSIIYYADSVKGRFTISRDNAKNSLYLQMNSLRAEDTAVYYCARGGRQLFSPDYWGQGTLVTVSS
VL: DIVMTQSPDSLAVSLGERATINCKSSQSLLHSGNQKNYLTWYQQKPGQPPKLLIYWASTRESGVPDRFTGSGSGTDFTLTISSLQAEDVAVYYCQNDYSYPFTFGSGTKLEIKR
notes: VH substitution L110Q/V111L/W112F (Xencor #); L98Q/V99L/W100F (Kabat); also called mAb C[PD1]_H1.193_L1.1_IgG1_PVA_/S267K
Take B1: the Kd with human PD-1-His [1] was found to be 33.8 nM. In the test with human PD-1-His [2], this molecule returned a koff of 0.00391 s⁻¹ and a kon of 116000 M⁻¹ s⁻¹.

B2: H1.199_L1.1 (XENP32815) (antibody, human IgG1, kappa, V domains shown)
VH: EVQLVESGGGLVQPGGSLRLSCAASGFTFSSFGMHWVRQAPGKGLEWVSYISSGSSIIYYADSVKGRFTISRDNAKNSLYLQMNSLRAEDTAVYYCARGGRLIFSSDYWGQGTLVTVSS
VL: DIVMTQSPDSLAVSLGERATINCKSSQSLLHSGNQKNYLTWYQQKPGQPPKLLIYWASTRESGVPDRFTGSGSGTDFTLTISSLQAEDVAVYYCQNDYSYPFTFGSGTKLEIKR
notes: VH substitution V111I/W112F/P114S (Xencor #); V99I/W100F/P100bS (Kabat); also called mAb C[PD1]_H1.199_L1.1_IgG1_PVA_/S267K
B2 registered a Kd with human PD-1-His [1] of 15.5 nM. In the test with human PD-1-His [2], this molecule returned a koff of 0.00155 s⁻¹ and a kon of 99700 M⁻¹ s⁻¹.

B3: H1.198_L1.1 (XENP32814) (antibody, human IgG1, kappa, V domains shown)
VH: EVQLVESGGGLVQPGGSLRLSCAASGFTFSSFGMHWVRQAPGKGLEWVSYISSGSSIIYYADSVKGRFTISRDNAKNSLYLQMNSLRAEDTAVYYCARGGRLVFNPDYWGQGTLVTVSS
VL: DIVMTQSPDSLAVSLGERATINCKSSQSLLHSGNQKNYLTWYQQKPGQPPKLLIYWASTRESGVPDRFTGSGSGTDFTLTISSLQAEDVAVYYCQNDYSYPFTFGSGTKLEIKR
notes: VH substitution W112F/S113N (Xencor #); W100F/S100aN (Kabat); also called mAb C[PD1]_H1.198_L1.1_IgG1_PVA_/S267K
Consider B3, for which the Kd in the test with human PD-1-His [1] worked out at 18.2 nM. In the test with human PD-1-His [2], this molecule registered a koff of 0.00142 s⁻¹ and a kon of 78000 M⁻¹ s⁻¹.

B4: H1.191_L1.1 (XENP32807) (antibody, human IgG1, kappa, V domains shown)
VH: EVQLVESGGGLVQPGGSLRLSCAASGFTFSSFGMHWVRQAPGKGLEWVSYISSGSSIIYYADSVKGRFTISRDNAKNSLYLQMNSLRAEDTAVYYCARGGRLTFSPDYWGQGTLVTVSS
VL: DIVMTQSPDSLAVSLGERATINCKSSQSLLHSGNQKNYLTWYQQKPGQPPKLLIYWASTRESGVPDRFTGSGSGTDFTLTISSLQAEDVAVYYCQNDYSYPFTFGSGTKLEIKR
notes: VH substitution V111T/W112F (Xencor #); V99T/W100F (Kabat); also called mAb C[PD1]_H1.191_L1.1_IgG1_PVA_/S267K
In the test with human PD-1-His [1], B4 displayed a Kd of 36 nM. In the test with human PD-1-His [2], the koff came out at 0.00382 s⁻¹ and the on-rate constant (kon) was found to be 106000 M⁻¹ s⁻¹.

B5: H1.194_L1.1 (XENP32810) (antibody, human IgG1, kappa, V domains shown)
VH: EVQLVESGGGLVQPGGSLRLSCAASGFTFSSFGMHWVRQAPGKGLEWVSYISSGSSIIYYADSVKGRFTISRDNAKNSLYLQMNSLRAEDTAVYYCARGGQLVFSPDYWGQGTLVTVSS
VL: DIVMTQSPDSLAVSLGERATINCKSSQSLLHSGNQKNYLTWYQQKPGQPPKLLIYWASTRESGVPDRFTGSGSGTDFTLTISSLQAEDVAVYYCQNDYSYPFTFGSGTKLEIKR
notes: VH substitution R109Q/W112F (Xencor #); R97Q/W100F (Kabat); also called mAb C[PD1]_H1.194_L1.1_IgG1_PVA_/S267K
Regarding B5, the Kd with human PD-1-His [1] amounted to 23.7 nM. In the test with human PD-1-His [2], this molecule had a koff of 0.00395 s⁻¹ and a kon of 166000 M⁻¹ s⁻¹.

B6: H1.192_L1.1 (XENP32808) (antibody, human IgG1, kappa, V domains shown)
VH: EVQLVESGGGLVQPGGSLRLSCAASGFTFSSFGMHWVRQAPGKGLEWVSYISSGSSIIYYADSVKGRFTISRDNAKNSLYLQMNSLRAEDTAVYYCARGGRLLFAPDYWGQGTLVTVSS
VL: DIVMTQSPDSLAVSLGERATINCKSSQSLLHSGNQKNYLTWYQQKPGQPPKLLIYWASTRESGVPDRFTGSGSGTDFTLTISSLQAEDVAVYYCQNDYSYPFTFGSGTKLEIKR
notes: VH substitution V111L/W112F/S113A (Xencor #); V99L/W100F/S100aA (Kabat); also called mAb C[PD1]_H1.192_L1.1_IgG1_PVA_/S267K
With B6, the Kd with human PD-1-His [1] is 35.8 nM. In addition, in the test with human PD-1-His [2], the koff turned out to be 0.00317 s⁻¹ and the kon amounted to 88500 M⁻¹ s⁻¹.

B7: H1.95_L1 (antibody, V domains shown)
VH: EVQLVESGGGLVQPGGSLRLSCAASGFTFSSFGMHWVRQAPGKGLEWVSYISSGSSINYYADSVKGRFTISRDNAKNSLYLQMNSLRAEDTAVYYCARGGRLVWSPDYWGQGTLVTVSS
VL: DIVMTQSPDSLAVSLGERATINCKSSQSLLNSGNQKNYLTWYQQKPGQPPKLLIYWASTRESGVPDRFTGSGSGTDFTLTISSLQAEDVAVYYCQNDYSYPFTFGSGTKLEIKR
notes: also called VH-I62N; Kabat 57
With B7, in the test with human PD-1-His [3], the Kd was found to be 73.4 nM, the off-rate constant (koff) is 0.0119 s⁻¹ and the kon came out at 162000 M⁻¹ s⁻¹.

B8: H1.189_L1.1 (XENP32805) (antibody, human IgG1, kappa, V domains shown)
VH: EVQLVESGGGLVQPGGSLRLSCAASGFTFSSFGMHWVRQAPGKGLEWVSYISSGSSIIYYADSVKGRFTISRDNAKNSLYLQMNSLRAEDTAVYYCARGGRRVFTPDYWGQGTLVTVSS
VL: DIVMTQSPDSLAVSLGERATINCKSSQSLLHSGNQKNYLTWYQQKPGQPPKLLIYWASTRESGVPDRFTGSGSGTDFTLTISSLQAEDVAVYYCQNDYSYPFTFGSGTKLEIKR
notes: VH substitution L110R/W112F/S113T (Xencor #); L98R/W100F/S100aT (Kabat); also called mAb C[PD1]_H1.189_L1.1_IgG1_PVA_/S267K
For the molecule B8, in the test with human PD-1-His [1], the Kd stood at 23.7 nM. In the test with human PD-1-His [2], this molecule had a koff of 0.00199 s⁻¹ and a kon of 83800 M⁻¹ s⁻¹.

B9: H1.97_L1 (antibody, V domains shown)
VH: EVQLVESGGGLVQPGGSLRLSCAASGFTFSSFGMHWVRQAPGKGLEWVSYISSGSSIKYYADSVKGRFTISRDNAKNSLYLQMNSLRAEDTAVYYCARGGRLVWSPDYWGQGTLVTVSS
VL: DIVMTQSPDSLAVSLGERATINCKSSQSLLNSGNQKNYLTWYQQKPGQPPKLLIYWASTRESGVPDRFTGSGSGTDFTLTISSLQAEDVAVYYCQNDYSYPFTFGSGTKLEIKR
notes: also called VH-I62K; Kabat 57
In the case of B9, in the test with human PD-1-His [3], the Kd turned out to be 114 nM, the off-rate (koff) came to 0.0175 s⁻¹ and the kon was 154000 M⁻¹ s⁻¹.

A word on the koff: it is the first-order rate constant of dissociation. A low value points to slow dissociation. For orientation: kon means a measure of how fast the partners come together. A lower kon goes with slower complex formation.
